Data: patent US20210147504A1 (Bayer, published 2021)

T1: rat ANP receptor (NPR-A) (rat, UniProt P18910 29-1057)
T1 sequence (looked up): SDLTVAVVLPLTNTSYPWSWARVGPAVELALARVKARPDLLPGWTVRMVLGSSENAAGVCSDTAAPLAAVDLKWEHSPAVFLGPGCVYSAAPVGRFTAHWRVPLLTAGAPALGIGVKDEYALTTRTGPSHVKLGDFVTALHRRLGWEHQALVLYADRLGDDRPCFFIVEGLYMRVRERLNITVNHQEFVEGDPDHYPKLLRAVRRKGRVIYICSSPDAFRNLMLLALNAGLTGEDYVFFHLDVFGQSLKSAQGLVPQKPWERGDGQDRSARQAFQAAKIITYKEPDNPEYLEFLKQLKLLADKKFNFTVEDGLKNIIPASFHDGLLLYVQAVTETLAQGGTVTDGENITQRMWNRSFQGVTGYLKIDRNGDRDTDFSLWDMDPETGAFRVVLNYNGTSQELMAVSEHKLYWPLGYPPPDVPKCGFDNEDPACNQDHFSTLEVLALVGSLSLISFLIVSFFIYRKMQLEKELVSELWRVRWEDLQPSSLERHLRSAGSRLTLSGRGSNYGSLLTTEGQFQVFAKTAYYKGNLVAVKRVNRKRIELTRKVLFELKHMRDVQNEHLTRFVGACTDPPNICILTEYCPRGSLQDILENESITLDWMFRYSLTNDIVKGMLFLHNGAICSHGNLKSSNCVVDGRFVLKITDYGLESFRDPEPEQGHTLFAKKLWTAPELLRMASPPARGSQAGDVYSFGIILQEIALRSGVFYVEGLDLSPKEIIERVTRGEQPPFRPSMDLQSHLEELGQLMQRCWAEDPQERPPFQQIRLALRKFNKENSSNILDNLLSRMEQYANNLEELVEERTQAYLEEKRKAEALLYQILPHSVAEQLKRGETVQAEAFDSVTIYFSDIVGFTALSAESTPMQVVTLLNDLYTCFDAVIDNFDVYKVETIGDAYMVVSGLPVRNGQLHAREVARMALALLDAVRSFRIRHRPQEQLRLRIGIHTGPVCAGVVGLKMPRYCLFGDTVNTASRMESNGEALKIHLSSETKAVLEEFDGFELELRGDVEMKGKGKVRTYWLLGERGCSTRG

T2: rat CNP receptor (NPR-B) (rat, UniProt P16067 17-1047)
T2 sequence (looked up): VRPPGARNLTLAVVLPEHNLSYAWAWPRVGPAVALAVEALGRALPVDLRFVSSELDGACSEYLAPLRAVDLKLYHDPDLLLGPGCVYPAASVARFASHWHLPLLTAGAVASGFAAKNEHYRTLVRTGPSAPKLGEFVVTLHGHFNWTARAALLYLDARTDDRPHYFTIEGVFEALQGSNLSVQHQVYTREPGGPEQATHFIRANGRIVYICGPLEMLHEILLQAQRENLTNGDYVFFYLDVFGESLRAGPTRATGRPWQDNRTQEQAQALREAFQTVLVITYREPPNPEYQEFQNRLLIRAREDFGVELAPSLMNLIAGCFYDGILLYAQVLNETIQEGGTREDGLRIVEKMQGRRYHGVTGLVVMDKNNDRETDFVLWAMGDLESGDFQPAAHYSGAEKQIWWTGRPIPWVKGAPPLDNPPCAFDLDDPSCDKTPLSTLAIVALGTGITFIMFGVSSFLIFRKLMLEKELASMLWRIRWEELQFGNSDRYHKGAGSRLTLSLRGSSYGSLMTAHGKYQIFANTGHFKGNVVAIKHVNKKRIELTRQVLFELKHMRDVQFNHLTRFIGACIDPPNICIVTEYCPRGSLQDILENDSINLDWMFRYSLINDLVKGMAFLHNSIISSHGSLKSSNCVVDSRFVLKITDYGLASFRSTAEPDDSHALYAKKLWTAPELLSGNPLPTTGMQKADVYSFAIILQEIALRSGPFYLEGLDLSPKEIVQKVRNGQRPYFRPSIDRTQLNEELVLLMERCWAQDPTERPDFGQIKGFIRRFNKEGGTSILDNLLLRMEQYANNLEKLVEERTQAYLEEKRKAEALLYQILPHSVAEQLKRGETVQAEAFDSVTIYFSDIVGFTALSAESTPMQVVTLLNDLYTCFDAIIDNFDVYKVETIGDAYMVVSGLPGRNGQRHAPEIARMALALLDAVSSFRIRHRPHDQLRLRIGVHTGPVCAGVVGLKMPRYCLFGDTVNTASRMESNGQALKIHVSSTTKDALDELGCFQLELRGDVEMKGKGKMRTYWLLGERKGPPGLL

T3: human NPRA (hNPRA) (human, UniProt P16066 33-1061)
T3 sequence (looked up): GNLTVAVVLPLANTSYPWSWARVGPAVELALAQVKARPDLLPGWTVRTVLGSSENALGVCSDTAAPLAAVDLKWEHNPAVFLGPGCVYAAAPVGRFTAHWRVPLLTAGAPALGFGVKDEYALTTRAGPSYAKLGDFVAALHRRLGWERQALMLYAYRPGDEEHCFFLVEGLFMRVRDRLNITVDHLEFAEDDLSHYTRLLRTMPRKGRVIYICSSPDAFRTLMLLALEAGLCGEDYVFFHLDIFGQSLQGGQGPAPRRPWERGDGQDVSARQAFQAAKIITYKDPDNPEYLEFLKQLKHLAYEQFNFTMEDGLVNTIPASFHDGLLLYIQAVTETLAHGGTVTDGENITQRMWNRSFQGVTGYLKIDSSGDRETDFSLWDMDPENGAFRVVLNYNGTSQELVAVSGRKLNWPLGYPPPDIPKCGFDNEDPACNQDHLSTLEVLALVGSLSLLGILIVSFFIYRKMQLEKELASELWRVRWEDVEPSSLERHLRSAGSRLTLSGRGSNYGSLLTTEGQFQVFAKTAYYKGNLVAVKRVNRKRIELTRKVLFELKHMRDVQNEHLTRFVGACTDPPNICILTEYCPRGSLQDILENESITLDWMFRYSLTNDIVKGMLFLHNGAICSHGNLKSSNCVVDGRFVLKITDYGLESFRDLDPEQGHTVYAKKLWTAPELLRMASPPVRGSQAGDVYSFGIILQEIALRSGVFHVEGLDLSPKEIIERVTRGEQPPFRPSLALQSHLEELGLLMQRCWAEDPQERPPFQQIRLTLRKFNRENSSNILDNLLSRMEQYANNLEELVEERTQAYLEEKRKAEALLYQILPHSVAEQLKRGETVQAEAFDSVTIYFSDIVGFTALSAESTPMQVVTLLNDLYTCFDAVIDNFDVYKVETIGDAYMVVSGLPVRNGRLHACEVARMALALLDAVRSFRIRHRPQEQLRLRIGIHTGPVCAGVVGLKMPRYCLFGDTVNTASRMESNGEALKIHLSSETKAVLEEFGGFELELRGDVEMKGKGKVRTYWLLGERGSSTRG


Experiments:
Assay in all cases: cell-based or functional assay
rat ANP receptor (NPR-A) = target: T1, rat ANP receptor (NPR-A)
rat CNP receptor (NPR-B) = target: T2, rat CNP receptor (NPR-B)
human NPRA (hNPRA) = target: T3, human NPRA (hNPRA)

Row | Binder | EC50, fluorescence signal of rat NPR-A cGMP reporter CHO cell line (GCaMP6/CNGA2) (rat ANP receptor (NPR-A)) | EC50, luminescence signal of rat NPR-B cGMP reporter cell line (rat CNP receptor (NPR-B)) | other results
1 | TPP-11156 (antibody, human IgG1, lambda) heavy: not shown light: QSVLTQPPSVSGAPGQRVTISCTGSSSNIGAGYDVHWYQQLPGTAPKLLIYGNSNRPSGVPDRFSGSKSGTSASLAITGLQAEDEADYYCQSYDSSLSGVVFGGGTKLTVLGQPKAAPSVTLFPPSSEELQANKATLVCLISDFYPGAVTVAWKADSSPVKAGVETTTPSKQSNNKYAASSYLSLTPEQWKSHRSYSCQVTHEGSTVEKTVAPTECS | 1200 nM | – | EC50 on rNPRA reporter cells (rat ANP receptor (NPR-A)): > 1000 nM
2 | TPP-5661 (antibody) heavy: not shown light: QSVLTQPPSVSGAPGQRVTISCTGSSSNIGAGYDVHWYQQLPGTAPKLLIYGNSNRPSGVPDRFSGSKSGTSASLAITGLQAEDEADYYCQSYDSSLSGVVFGGGTKLTVLGQPKAAPSVTLFPPSSEELQANKATLVCLISDFYPGAVTVAWKADSSPVKAGVETTTPSKQSNNKYAASSYLSLTPEQWKSHRSYSCQVTHEGSTVEKTVAPTECS | 17 nM | – | log EC50, cGMP quantification assay, isolated compound sample (ics) on stable hNPRA-CHO k1 cells (human NPRA (hNPRA)): -8.8 log EC50; log EC50, cGMP quantification assay, purified compound sample (pcs) on stable hNPRA-CHO k1 cells (human NPRA (hNPRA)): -9.2 log EC50; log EC50, cGMP quantification assay, purified compound sample (pcs) on transient hNPRA-HEK293 cells (human NPRA (hNPRA)): -9 log EC50
3 | TPP-12897 (antibody) heavy: not shown light: QSVLTQPPSVSGAPGQRVTISCTGSSSNIGAGYDVHWYQQLPGTAPKLLIYGNSNRPSGVPDRFSGSKSGTSASLAITGLQAEDEADYYCQSYDSSLDGVVFGGGTKLTVLGQPKAAPSVTLFPPSSEELQANKATLVCLISDFYPGAVTVAWKADSSPVKAGVETTTPSKQSNNKYAASSYLSLTPEQWKSHRSYSCQVTHEGSTVEKTVAPTECS | – | 10 nM | –

Further lines, with some results ahead:

Row | EC50, fluorescence signal of rat NPR-A cGMP reporter CHO cell line (GCaMP6/CNGA2) (rat ANP receptor (NPR-A)) | EC50, luminescence signal of rat NPR-B cGMP reporter cell line (rat CNP receptor (NPR-B)) | Binder | other results
4 | – | 5.2 nM | TPP-9465 (antibody) heavy: not shown light: QSVLTQPPSVSGAPGQRVTISCTGSSSNIGAGYDVHWYQQLPGTAPKLLIYGNSNRPSGVPDRFSGSKSGTSASLAITGLQAEDEADYYCQSYDSSLSGVVFGGGTKLTVLGQPKAAPSVTLFPPSSEELQANKATLVCLISDFYPGAVTVAWKADSSPVKAGVETTTPSKQSNNKYAASSYLSLTPEQWKSHRSYSCQVTHEGSTVEKTVAPTECS | –
5 | 180 nM | – | TPP-10992 (antibody, human IgG4 S228P, lambda) heavy: not shown light: QSVLTQPPSVSGAPGQRVTISCTGSSSNIGAGYDVHWYQQLPGTAPKLLIYGNSNRPSGVPDRFSGSKSGTSASLAITGLQAEDEADYYCQSYDSSLSGVVFGGGTKLTVLGQPKAAPSVTLFPPSSEELQANKATLVCLISDFYPGAVTVAWKADSSPVKAGVETTTPSKQSNNKYAASSYLSLTPEQWKSHRSYSCQVTHEGSTVEKTVAPTECS | –
6 | 2300 nM | – | TPP-9902 (antibody) heavy: not shown light: QSVLTQPPSVSGAPGQRVTISCTGSSSNIGAGYDVHWYQQLPGTAPKLLIYGNSNRPSGVPDRFSGSKSGTSASLAITGLQAEDEADYYCQSYDSSLSGVVFGGGTKLTVLGQPKAAPSVTLFPPSSEELQANKATLVCLISDFYPGAVTVAWKADSSPVKAGVETTTPSKQSNNKYAASSYLSLTPEQWKSHRSYSCQVTHEGSTVEKTVAPTECS | EC50 on rNPRA reporter cells (rat ANP receptor (NPR-A)): > 1000 nM
7 | – | 4.1 nM | TPP-12377 (antibody) heavy: not shown light: QSVLTQPPSVSGAPGQRVTISCTGSSSNIGAGYDVHWYQQLPGTAPKLLIYGNSNRPSGVPDRFSGSKSGTSASLAITGLQAEDEADYYCQSYDSSLSGVVFGGGTKLTVLGQPKAAPSVTLFPPSSEELQANKATLVCLISDFYPGAVTVAWKADSSPVKAGVETTTPSKQSNNKYAASSYLSLTPEQWKSHRSYSCQVTHEGSTVEKTVAPTECS | –
